# Measured values published in US20080267961A1 (published 2008).
# B1: p85-sErbB3, P21860 20-538 (receptor)
# chain: SEVGNSQAVCPGTLNGLSVTGDAENQYQTLYKLYERCEVVMGNLEIVLTGHNADLSFLQWIREVTGYVLVAMNEFSTLPLPNLRVVRGTQVYDGKFAIFVMLNYNTNSSHALRQLRLTQLTEILSGGVYIEKNDKLCHMDTIDWRDIVRDRDAEIVVKDNGRSCPPCHEVCKGRCWGPGSEDCQTLTKTICAPQCNGHCFGPNPNQCCHDECAGGCSGPQDTDCFACRHFNDSGACVPRCPQPLVYNKLTFQLEPNPHTKYQYGGVCVASCPHNFVVDQTSCVRACPPDKMEVDKNGLKMCEPCGGLCPKACEGTGSGSRFQTVDSSNIDGFVNCTKILGNLDFLITGLNGDPWHKIPALDPEKLNVFRTVREITGYLNIQSWPPHMHNFSVFSNLTTIGGRSLYNRGFSLLIMKNLNVTSLGFRSLKEISAGRIYISANRQLCYHHSLNWTKVLRGPTEERLDIKHNRPRRDCVAEGKVCDPLCSSGGCWGPGPGQCLSCRNYSRGGVCVTHCNFLNGYSKGSQSRMGGGGALQWNCSGGIQ
# modifications: here or on the partner: Secreted glycoprotein (bound to Con A); glycans not carried by the letters.
# B2: p85-sErbB3 (receptor)
# chain: B1 chain
# modifications: Secreted glycoprotein (bound to Con A); glycans not carried by the letters.
# Assays:
# HRGβ177-244 [1] = target: HRGβ177-244 (UniProt Q02297); assay: 125I-HRGβ177-244 binding to ErbB3-IgG homodimer (positive control), 96-well plate, Scatchard analysis
# ErbB2 = ErbB2 (UniProt P04626); assay: inhibition of 125I-HRGβ177-244 (0.1 nM) binding to T47D cells; 2C4 varied
# HRGα EGF domain177-241 = HRGα EGF domain177-241 (UniProt Q02297); assay: cell-based or functional assay
# [2] = target: T1, HRGβ 1 EGF domain 176-246 (UniProt Q02297-6 176-246, 125I-labelled in the crosslinking experiment (residue not stated)); assay: cell-based or functional assay
# T1 sequence (looked up): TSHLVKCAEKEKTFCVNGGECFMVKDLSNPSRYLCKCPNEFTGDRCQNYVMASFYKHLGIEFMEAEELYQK
# [3] = target: HRGα EGF domain177-241, Q02297; assay: cell-based or functional assay
# HRGβ177-244 [4] = target: HRGβ177-244 (UniProt Q02297); assay: inhibition of 125I-HRGβ177-244 (0.1 nM) binding to T47D cells; p85-sErbB3 varied
# HRGβ177-244 [5] = target: HRGβ177-244 (UniProt Q02297); assay: 125I-HRGβ177-244 binding to immobilized p85-sErbB3, 96-well plate, Scatchard analysis
molecule,measurement,setting,value
ErbB3-IgG fusion protein (from UniProt P21860 20-643) (Fc fusion),Kd,HRGβ177-244 [1],4.7 nM
"2C4, a monoclonal antibody specific for the ErbB2 extracellular domain",IC50,ErbB2,0.55 nM
p45-sErbB3 (from UniProt P21860 20-329) (receptor),"inhibition of HRGα-stimulated ErbB3 activation (tyrosine phosphorylation, densitometry) in Ba/F3 (ErbB2+ErbB3) cells, 1 µg/ml HRGα, conditioned medium",HRGα EGF domain177-241,40%
same,"decrease of ligand-stimulated ErbB3 tyrosine phosphorylation in Ba/F3 (ErbB2+ErbB3) cells, 50 and 100 ng/ml HRGβ, conditioned medium",[2],60%
B1,"decrease of HRGα-stimulated ErbB3 activation in Ba/F3 (ErbB2+ErbB3) cells, 2 µg/ml HRGα, conditioned medium",[3],30%
same,"inhibition of HRGα-stimulated ErbB3 activation (tyrosine phosphorylation, densitometry) in Ba/F3 (ErbB2+ErbB3) cells, 1 µg/ml HRGα, conditioned medium",[3],80%
B2,"inhibition of HRGβ-stimulated MCF7 cell growth, 0.4 nM HRGβ, 40 nM p85-sErbB3 (100-fold molar excess), 5,000 cells/well",[2],75%
same,"inhibition of HRGβ-stimulated MCF7 cell growth, 0.4 nM HRGβ, 40 nM p85-sErbB3 (100-fold molar excess), 8,000 cells/well",[2],90%
same,IC50,HRGβ177-244 [4],0.45 nM
same,Kd,HRGβ177-244 [5],3 nM
